The record followed here is US6413943.

One assay deals with CDC2/cyclin B (UniProt P06493). The experiment in a line: in vitro kinase assay; mixture of p27 and p16.
A further assay addresses CDK2/cyclin E (UniProt P24941). The experiment in a line: in vitro kinase assay; mixture of p27 and p16.
Another assay concerns the target CDK4/cyclin D1 complex (UniProt P11802). The experiment in a line: cell-based or functional assay.
The next assay deals with CDC2/cyclin B complex (UniProt P06493). The experiment in a line: cell-based or functional assay.
Another assay addresses CDK2/cyclin A complex (UniProt P24941). The assay can be described thus: cell-based or functional assay.
A further assay has as its target CDK2/cyclin E complex (UniProt P24941). The assay can be described thus: cell-based or functional assay.

CDK4/cyclin D1 complex, sequence (P11802 whole entry, chain 1 of 2): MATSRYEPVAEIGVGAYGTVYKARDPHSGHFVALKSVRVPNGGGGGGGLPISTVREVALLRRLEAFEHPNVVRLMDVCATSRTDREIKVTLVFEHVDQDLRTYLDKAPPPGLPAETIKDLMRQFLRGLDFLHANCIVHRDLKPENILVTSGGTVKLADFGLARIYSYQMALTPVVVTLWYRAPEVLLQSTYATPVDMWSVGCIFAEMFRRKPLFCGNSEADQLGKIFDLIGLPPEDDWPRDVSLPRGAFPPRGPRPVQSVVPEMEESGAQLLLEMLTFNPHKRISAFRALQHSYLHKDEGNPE
CDK4/cyclin D1 complex, sequence (P24385 whole entry, chain 2 of 2, further chain): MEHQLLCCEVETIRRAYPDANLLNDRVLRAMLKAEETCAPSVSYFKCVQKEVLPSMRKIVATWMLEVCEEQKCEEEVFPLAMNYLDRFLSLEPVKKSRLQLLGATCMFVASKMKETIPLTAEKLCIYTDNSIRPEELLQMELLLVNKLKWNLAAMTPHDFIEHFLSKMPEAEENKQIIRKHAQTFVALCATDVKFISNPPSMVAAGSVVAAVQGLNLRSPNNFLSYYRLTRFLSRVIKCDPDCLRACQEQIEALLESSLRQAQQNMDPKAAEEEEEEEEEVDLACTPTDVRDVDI
CDC2/cyclin B, sequence (P06493 whole entry): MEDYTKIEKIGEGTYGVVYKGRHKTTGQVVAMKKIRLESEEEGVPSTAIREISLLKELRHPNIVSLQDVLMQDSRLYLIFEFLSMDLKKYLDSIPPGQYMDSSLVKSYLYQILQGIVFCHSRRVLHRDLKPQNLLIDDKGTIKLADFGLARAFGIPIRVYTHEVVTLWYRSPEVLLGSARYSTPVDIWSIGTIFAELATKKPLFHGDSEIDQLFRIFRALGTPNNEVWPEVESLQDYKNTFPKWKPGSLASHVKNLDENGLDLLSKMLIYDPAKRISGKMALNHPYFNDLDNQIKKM
CDC2/cyclin B complex, sequence (P06493 whole entry, one chain of several): as the sequence (P06493 whole entry) above

For p27 + p16, the IC50 was determined as 0.012 µM with CDC2/cyclin B and 0.0017 µM with CDK2/cyclin E.
For the substance human p27 (from UniProt P46527 1-198), the IC50, in vitro kinase activity (GST-Rb phosphorylation) with CDK4/cyclin D1 complex amounted to 0.063 µM.
Substance p27-p16 fusion protein came in with an IC50, in vitro kinase activity (histone H1 phosphorylation) with CDC2/cyclin B complex of 0.015 µM. This substance had an IC50, in vitro kinase activity in the assay with CDK2/cyclin A complex of 0.025 µM. In addition, the IC50, in vitro kinase activity (GST-Rb phosphorylation) in the assay with CDK2/cyclin E complex stood at 0.03 µM; with CDK4/cyclin D1 complex, 0.025 µM.
